From patent US20180327473A1 (published 2018)
Numbering of substitutions follows the chain as printed.

B1: mTCR-1 (TCR, V domains shown)
Valpha: QQKVQQSPESLIVPEGGMASLNCTSSDRNVDYFWWYRQHSGKSPKMLMSIFSNGEKEEGRFTVHLNKASLHTSLHIRDSQPSDSALYLCAASITNAYKVIFGKGTHLHVLP
Vbeta: EAAVTQSPRNKVTVTGGNVTLSCRQTNSHNYMYWYRQDTGHGLRLIHYSYGAGNLQIGDVPDGYKATRTTQEDFFLLLELASPSQTSLYFCASSDAGTSQNTLYFGAGTRLSVL
B2: mTCR-3 (TCR, V domains shown)
Valpha: B1 Valpha with I93M, T94A, N95G, A96G, I100V, K103S, H106R, H108L, L110S
Vbeta: B1 Vbeta with S99A
B3: mTCR-17 (TCR, V domains shown)
Valpha: B1 Valpha with I93M, N95G, A96G, I100V, K103S, H106R, H108L, L110S
Vbeta: B1 Vbeta
B4: mTCR-8 (TCR, V domains shown)
Valpha: B1 Valpha with T94S, N95G, A96G, I100V, K103S, H106R, H108L, L110S
Vbeta: B1 Vbeta
B5: mTCR-10 (TCR, V domains shown)
Valpha: B1 Valpha with T94V, N95G, A96G, I100V, K103S, H106R, H108L, L110S
Vbeta: B1 Vbeta with A96H, S99G
B6: mTCR-11 (TCR, V domains shown)
Valpha: B1 Valpha with I93K, N95G, A96G, I100V, K103S, H106R, H108L, L110S
Vbeta: B1 Vbeta
B7: mTCR-38 (TCR, V domains shown)
Valpha: B1 Valpha with S92T, I93L, N95G, A96G, I100V, K103S, H106R, H108L, L110S
Vbeta: B1 Vbeta
B8: mTCR-6 (TCR, V domains shown)
Valpha: B1 Valpha with I93M, T94I
Vbeta: B1 Vbeta with T98V
B9: mTCR-2 (TCR, V domains shown)
Valpha: B1 Valpha with I93T, T94V
Vbeta: B1 Vbeta

Molecular target: T1, human alpha fetoprotein (hAFP158) peptide on HLA-A2 (human)
T1 peptide: FMNKFIYEI
Assay: multimer staining

Binding result, recognises:
B1, B2, B3, B4, B5, B6, B7, B8, B9
